From patent US6500929B1

Legend:
[1] = molecular target: C1 (a first component of complement) of human serum (human) (UniProt P09871)
[2] = molecular target: C1 (a first component of complement) of human serum (human) (UniProt P09871); remark: listed apart in the source

complement-mediated lysis of swine vascular endothelial cells (SEC) by 20% and 40% human serum [1]: 20%
complement-mediated lysis of CHO cells (antibody against CHO cells, then 40% human serum) [2]: 20%
Substance: FLAG-C1-INH-GPI (C1-INH-GPI with a FLAG epitope tag added to the C terminal of the signal peptide)
